The values below come from patent US8003599.

This series has as its target human L1 adhesion molecule (L1-CAM), wild type, on cells.

human L1 adhesion molecule (L1-CAM), wild type, on cells, sequence (chain, as listed by the source): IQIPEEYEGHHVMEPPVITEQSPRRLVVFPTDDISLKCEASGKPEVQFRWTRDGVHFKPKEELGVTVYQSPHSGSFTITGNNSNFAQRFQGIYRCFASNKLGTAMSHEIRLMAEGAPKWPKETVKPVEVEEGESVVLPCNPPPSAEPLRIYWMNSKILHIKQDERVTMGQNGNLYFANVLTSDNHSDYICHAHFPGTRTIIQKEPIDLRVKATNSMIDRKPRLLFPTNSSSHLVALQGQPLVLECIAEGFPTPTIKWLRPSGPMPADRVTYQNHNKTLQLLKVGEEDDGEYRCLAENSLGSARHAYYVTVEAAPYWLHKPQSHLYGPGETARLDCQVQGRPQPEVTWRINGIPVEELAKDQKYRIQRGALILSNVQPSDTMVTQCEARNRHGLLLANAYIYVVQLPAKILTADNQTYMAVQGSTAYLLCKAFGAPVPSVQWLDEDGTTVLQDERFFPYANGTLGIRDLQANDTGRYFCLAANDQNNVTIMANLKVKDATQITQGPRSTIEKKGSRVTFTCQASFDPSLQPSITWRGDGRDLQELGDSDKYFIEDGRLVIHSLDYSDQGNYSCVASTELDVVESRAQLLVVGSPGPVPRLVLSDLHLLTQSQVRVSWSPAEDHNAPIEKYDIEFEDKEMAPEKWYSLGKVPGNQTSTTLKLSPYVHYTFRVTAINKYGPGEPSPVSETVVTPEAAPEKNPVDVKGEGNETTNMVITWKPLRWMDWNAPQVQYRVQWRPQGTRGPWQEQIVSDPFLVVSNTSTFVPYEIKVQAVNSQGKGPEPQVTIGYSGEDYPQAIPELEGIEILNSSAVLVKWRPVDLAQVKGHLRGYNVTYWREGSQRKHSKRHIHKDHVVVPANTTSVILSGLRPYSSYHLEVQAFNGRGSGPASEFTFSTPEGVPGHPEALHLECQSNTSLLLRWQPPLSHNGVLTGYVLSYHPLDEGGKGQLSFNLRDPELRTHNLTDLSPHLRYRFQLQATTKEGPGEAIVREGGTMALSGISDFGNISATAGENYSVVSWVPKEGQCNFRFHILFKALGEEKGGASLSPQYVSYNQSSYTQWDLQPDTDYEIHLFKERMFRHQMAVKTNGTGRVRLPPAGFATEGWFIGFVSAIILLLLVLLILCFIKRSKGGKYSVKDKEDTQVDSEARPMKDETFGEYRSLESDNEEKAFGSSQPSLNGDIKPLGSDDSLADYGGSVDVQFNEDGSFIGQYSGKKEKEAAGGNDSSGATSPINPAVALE

B1: human ADAM10 (membrane-bound metalloproteinase) (protein)
chain: TTSAEKNTCQLYIQTDHLFFKYYGTREAVIAQISSHVKAIDTIYQTTDFSGIRNISFMVKRIRINTTADEKDPTNPFRFPNIGVEKFLELNSEQNHDDYCLAYVFTDRDFDDGVLGLAWVGAPSGSSGGICEKSKLYSDGKKKSLNTGIITVQNYGSHVPPKVSHITFAHEVGHNFGSPHDSGTECTPGESKNLGQKENGNYIMYARATSGDKLNNNKFSLCSIRNISQVLEKKRNNCFVESGQPICGNGMVEQGEECDCGYSDQCKDECCFDANQPEGRKCKLKPGKQCSPSQGPCCTAQCAFKSKSEKCRDDSDCAREGICNGFTALCPASDPKPNFTDCNRHTQVCINGQCAGSICEKYGLEECTCASSDGKDDKELCHVCCMKKMDPSTCASTGSVQWSRHFSGRTITLQPGSPCNDFRGYCDVFMRCRLVDADGPLARLKKAIFSPELYENIAEWIVAHWWAVLLMGIALIMLMAGFIKICSVHTPSSNPKLPPPKPLPGTLKRRRPPQPIQQPQRQRPRESYQMGHMRR
For B1, the L1 cleavage result is reported as “L1 cleavage required the membrane-bound metalloproteinase ADAM10”.
